# Key:
# Assay in all cases: anti-HA co-IP from muscle, MS; CTRL 0
# [1] = biological target: Serine-threonine kinase receptor-associated protein (Mus musculus) (UniProt Q9Z1Z2)
# [2] = biological target: Ribosomal protein S6 kinase alpha-2 (Mus musculus) (UniProt Q9WUT3)
# [3] = biological target: EH domain-containing protein 2 (Mus musculus) (UniProt Q8BH64)
# [4] = biological target: Casein kinase II subunit alpha (Mus musculus) (UniProt Q60737)
# [5] = biological target: Sorting and assembly machinery component 50 homolog (Mus musculus) (UniProt Q8BGH2)
# [6] = biological target: Sodium/calcium exchanger 1 (Mus musculus) (UniProt P70414)
# [7] = biological target: Charged multivesicular body protein 4b (Mus musculus) (UniProt Q9D8B3)
# [8] = biological target: Nesprin-2 (Mus musculus) (UniProt Q6ZWQ0)
# [9] = biological target: Ferrochelatase, mitochondrial (Mus musculus) (UniProt P22315)
# [10] = biological target: Dystroglycan (Mus musculus) (UniProt Q62165)
# [11] = biological target: Basigin (Mus musculus) (UniProt P18572)
# [12] = biological target: Medium-chain specific acyl-CoA dehydrogenase, mitochondrial (Mus musculus) (UniProt P45952)
# [13] = biological target: Heterogeneous nuclear ribonucleoprotein L (Mus musculus) (UniProt Q8R081)
# [14] = biological target: Patatin-like phospholipase domain-containing protein 7 (Mus musculus) (UniProt A2AJ88)
# [15] = biological target: 60S ribosomal protein L15 (Mus musculus) (UniProt Q9CZM2)
# [16] = biological target: von Willebrand factor A domain-containing protein 8 (Mus musculus) (UniProt Q8CC88)
# [17] = biological target: Protein phosphatase 1 regulatory subunit 3A (Mus musculus) (UniProt Q99MR9)
# [18] = biological target: Heterogeneous nuclear ribonucleoprotein H2 (Mus musculus) (UniProt P70333)
# [19] = biological target: CDP-diacylglycerol--inositol 3-phosphatidyltransferase (Mus musculus) (UniProt Q8VDP6)
# [20] = biological target: DNA replication licensing factor MCM2 (Mus musculus) (UniProt P97310)
# [21] = biological target: Nuclear mitotic apparatus protein 1 (Mus musculus) (UniProt E9Q7G0)
# [22] = biological target: Long-chain specific acyl-CoA dehydrogenase, mitochondrial (Mus musculus) (UniProt P51174)
# [23] = biological target: Microtubule-associated protein 4 (Mus musculus) (UniProt P27546)
# [24] = biological target: DnaJ homolog subfamily B member 2 (Mus musculus) (UniProt Q9QYI5)
# [25] = biological target: Eukaryotic translation initiation factor 3 subunit H (Mus musculus) (UniProt Q91WK2)
# [26] = biological target: Coatomer subunit delta (Mus musculus) (UniProt Q5XJY5)
# [27] = biological target: Gamma-sarcoglycan (Mus musculus) (UniProt P82348)
# [28] = biological target: Ankyrin-2 (Mus musculus) (UniProt Q8C8R3)
# [29] = biological target: Glutathione S-transferase LANCL1 (Mus musculus) (UniProt O89112)
# [30] = biological target: Sodium channel protein type 4 subunit alpha (Mus musculus) (UniProt Q9ER60)
# [31] = biological target: Band 3 anion transport protein (Mus musculus) (UniProt P04919)
# [32] = biological target: Dual specificity mitogen-activated protein kinase kinase 3 (Mus musculus) (UniProt O09110)
# [33] = biological target: Transmembrane protein 43 (Mus musculus) (UniProt Q9DBS1)
# [34] = biological target: ATP-sensitive inward rectifier potassium channel 11 (Mus musculus) (UniProt Q61743)
# [35] = biological target: Nuclear speckle splicing regulatory protein 1 (Mus musculus) (UniProt Q5NCR9)
# [36] = biological target: Voltage-dependent L-type calcium channel subunit alpha-1s (Mus musculus) (UniProt Q02789)
# [37] = biological target: Eukaryotic initiation factor 4A-III (Mus musculus) (UniProt Q91VC3)
# [38] = biological target: C-1-tetrahydrofolate synthase, cytoplasmic (Mus musculus) (UniProt Q922D8)
# [39] = biological target: Sarcospan (Mus musculus) (UniProt Q62147)
# Sequence of Glutathione S-transferase LANCL1 (Mus musculus) (O89112 2-399 limits assumed): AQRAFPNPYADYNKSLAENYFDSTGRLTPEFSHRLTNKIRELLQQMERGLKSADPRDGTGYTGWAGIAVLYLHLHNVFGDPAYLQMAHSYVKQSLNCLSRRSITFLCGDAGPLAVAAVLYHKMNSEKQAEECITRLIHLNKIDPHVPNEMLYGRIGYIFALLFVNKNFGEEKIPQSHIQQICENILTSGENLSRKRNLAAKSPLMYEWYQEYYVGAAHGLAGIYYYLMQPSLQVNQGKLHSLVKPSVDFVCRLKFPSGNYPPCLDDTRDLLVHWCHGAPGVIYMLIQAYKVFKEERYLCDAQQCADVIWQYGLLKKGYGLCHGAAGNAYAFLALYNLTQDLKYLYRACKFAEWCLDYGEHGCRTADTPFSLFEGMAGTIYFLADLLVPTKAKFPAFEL
# Sequence of CDP-diacylglycerol--inositol 3-phosphatidyltransferase (Mus musculus) (Q8VDP6 whole entry): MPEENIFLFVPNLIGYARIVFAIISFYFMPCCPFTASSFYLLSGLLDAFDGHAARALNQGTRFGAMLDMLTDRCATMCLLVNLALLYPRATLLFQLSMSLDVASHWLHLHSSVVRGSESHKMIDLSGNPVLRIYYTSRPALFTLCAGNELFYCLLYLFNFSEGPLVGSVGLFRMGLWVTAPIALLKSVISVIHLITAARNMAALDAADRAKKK
# Sequence of Band 3 anion transport protein (Mus musculus) (P04919 whole entry): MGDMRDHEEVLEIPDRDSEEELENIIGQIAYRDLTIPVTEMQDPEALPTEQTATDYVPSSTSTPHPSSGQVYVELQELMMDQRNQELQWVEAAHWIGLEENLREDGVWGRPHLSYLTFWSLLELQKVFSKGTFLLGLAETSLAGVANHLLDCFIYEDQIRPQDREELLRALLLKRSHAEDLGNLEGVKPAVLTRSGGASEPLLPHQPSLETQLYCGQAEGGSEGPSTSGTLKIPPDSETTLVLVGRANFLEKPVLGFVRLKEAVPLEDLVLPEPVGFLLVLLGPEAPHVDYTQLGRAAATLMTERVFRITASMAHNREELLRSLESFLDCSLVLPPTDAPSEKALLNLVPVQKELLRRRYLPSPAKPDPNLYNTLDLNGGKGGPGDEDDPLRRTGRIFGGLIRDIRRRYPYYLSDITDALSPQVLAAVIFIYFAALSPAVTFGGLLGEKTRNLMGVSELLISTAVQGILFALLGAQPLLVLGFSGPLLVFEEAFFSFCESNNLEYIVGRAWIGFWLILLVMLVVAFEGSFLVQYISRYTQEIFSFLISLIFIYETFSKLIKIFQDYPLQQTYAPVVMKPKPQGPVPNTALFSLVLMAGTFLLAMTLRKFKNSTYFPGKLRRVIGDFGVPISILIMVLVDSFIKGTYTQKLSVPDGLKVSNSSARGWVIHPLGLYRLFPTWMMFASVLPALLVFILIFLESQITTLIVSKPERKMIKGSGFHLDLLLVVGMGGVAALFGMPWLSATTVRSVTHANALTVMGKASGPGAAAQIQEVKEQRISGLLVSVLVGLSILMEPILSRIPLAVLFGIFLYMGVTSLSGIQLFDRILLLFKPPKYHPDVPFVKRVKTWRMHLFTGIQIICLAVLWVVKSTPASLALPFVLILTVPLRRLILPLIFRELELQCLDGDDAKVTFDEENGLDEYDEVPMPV
# Sequence of human BVES fused with 3xHA tag (Q8NE79 other isoform, or with tags, fused parts or gaps limits assumed): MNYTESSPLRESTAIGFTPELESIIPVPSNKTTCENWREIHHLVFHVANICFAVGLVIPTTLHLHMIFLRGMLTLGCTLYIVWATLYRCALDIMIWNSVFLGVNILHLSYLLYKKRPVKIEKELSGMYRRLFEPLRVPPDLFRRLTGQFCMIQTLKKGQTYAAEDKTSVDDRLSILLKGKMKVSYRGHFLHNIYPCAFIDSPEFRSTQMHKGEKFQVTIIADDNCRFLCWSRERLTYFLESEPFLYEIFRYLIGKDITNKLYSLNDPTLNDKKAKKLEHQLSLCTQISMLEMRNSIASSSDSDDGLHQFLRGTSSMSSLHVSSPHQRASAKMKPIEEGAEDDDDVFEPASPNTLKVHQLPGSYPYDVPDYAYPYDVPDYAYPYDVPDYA
# Sequence of Transmembrane protein 43 (Mus musculus) (Q9DBS1 2-400 limits assumed): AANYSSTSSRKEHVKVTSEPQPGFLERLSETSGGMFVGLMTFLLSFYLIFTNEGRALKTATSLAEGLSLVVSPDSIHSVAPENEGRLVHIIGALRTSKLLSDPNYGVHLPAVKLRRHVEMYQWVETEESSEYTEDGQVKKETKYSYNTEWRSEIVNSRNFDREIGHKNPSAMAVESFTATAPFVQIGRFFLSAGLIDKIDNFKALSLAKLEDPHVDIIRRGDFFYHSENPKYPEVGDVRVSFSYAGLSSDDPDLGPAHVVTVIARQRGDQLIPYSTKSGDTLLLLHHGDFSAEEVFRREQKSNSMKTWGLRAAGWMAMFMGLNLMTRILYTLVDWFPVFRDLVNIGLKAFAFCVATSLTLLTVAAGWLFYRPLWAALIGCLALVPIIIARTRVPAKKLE
# Sequence of DNA replication licensing factor MCM2 (Mus musculus) (P97310 2-904 limits assumed): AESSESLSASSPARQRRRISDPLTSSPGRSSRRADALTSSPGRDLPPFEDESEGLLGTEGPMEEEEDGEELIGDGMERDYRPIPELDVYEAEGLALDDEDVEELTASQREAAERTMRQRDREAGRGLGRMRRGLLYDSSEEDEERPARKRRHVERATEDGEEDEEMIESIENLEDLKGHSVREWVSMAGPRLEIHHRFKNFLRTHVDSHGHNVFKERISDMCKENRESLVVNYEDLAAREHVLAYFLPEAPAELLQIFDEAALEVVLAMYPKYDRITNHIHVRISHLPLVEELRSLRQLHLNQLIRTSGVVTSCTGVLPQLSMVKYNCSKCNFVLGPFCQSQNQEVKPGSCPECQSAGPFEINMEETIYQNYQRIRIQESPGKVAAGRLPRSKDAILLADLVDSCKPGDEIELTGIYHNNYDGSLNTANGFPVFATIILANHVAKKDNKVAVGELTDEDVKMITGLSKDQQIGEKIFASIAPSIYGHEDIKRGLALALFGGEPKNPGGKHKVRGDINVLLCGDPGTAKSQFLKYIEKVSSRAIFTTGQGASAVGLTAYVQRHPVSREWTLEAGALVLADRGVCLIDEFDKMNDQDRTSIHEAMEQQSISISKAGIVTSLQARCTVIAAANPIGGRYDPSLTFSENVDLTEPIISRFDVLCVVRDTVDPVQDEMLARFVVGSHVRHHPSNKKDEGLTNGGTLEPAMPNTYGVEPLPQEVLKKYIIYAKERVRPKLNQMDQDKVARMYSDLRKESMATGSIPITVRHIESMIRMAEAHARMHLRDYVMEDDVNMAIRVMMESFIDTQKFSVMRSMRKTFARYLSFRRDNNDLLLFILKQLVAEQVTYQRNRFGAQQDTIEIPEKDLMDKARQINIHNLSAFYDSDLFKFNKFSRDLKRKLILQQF
# Sequence of Dystroglycan (Mus musculus) (Q62165 28-893 limits assumed): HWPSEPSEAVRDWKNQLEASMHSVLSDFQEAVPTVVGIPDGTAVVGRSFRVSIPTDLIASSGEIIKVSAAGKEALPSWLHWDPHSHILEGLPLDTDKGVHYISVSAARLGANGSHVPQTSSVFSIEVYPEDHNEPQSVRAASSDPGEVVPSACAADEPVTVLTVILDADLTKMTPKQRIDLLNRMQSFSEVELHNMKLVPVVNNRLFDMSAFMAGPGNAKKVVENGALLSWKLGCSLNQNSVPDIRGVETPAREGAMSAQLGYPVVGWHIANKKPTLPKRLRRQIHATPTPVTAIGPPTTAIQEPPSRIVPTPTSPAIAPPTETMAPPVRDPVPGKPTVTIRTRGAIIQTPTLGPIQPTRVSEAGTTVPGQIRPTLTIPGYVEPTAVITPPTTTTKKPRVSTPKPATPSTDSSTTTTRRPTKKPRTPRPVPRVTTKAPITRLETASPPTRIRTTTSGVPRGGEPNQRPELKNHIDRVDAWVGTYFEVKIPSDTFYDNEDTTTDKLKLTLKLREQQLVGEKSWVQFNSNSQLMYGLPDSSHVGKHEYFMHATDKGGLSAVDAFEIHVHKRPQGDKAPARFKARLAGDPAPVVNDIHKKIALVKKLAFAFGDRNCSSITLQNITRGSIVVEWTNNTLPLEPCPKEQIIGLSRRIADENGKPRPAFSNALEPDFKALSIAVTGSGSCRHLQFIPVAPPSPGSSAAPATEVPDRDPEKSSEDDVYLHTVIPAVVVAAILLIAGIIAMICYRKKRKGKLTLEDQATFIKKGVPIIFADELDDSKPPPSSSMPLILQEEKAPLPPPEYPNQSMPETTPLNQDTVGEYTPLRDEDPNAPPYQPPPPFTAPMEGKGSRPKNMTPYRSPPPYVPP
# Sequence of Eukaryotic translation initiation factor 3 subunit H (Mus musculus) (Q91WK2 whole entry): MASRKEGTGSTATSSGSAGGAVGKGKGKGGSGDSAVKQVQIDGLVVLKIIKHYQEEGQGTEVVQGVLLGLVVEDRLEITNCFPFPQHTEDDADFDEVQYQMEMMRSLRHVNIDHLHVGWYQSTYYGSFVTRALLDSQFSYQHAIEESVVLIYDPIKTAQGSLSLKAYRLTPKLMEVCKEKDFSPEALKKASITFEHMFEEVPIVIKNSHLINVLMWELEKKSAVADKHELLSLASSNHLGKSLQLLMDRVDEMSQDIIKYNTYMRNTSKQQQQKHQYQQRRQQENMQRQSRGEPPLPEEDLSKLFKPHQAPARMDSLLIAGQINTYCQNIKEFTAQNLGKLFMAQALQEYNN
# Sequence of Basigin (Mus musculus) (P18572 22-389 limits assumed): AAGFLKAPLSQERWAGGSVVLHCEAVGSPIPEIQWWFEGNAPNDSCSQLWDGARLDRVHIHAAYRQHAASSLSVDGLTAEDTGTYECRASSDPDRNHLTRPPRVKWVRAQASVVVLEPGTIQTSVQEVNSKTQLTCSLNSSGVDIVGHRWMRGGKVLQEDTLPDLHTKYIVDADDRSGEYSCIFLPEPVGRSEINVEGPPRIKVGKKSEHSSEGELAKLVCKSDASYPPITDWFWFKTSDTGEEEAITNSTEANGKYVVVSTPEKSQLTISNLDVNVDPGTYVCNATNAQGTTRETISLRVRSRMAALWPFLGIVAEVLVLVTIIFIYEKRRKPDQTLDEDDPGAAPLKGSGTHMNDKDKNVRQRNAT
substance,measurement,setting,value
human BVES fused with 3xHA tag (from UniProt Q8NE79 1-360),AAV9-BVES-HA (IP-MS count),[1],2
same,AAV9-BVES-HA (IP-MS count),[2],12
same,AAV9-BVES-HA (IP-MS count),[3],6
same,AAV9-BVES-HA (IP-MS count),[4],2
same,AAV9-BVES-HA (IP-MS count),[5],5
same,AAV9-BVES-HA (IP-MS count),[6],2
same,AAV9-BVES-HA (IP-MS count),[7],2
same,AAV9-BVES-HA (IP-MS count),[8],2
same,AAV9-BVES-HA (IP-MS count),[9],2
same,AAV9-BVES-HA (IP-MS count),[10],4
same,AAV9-BVES-HA (IP-MS count),[11],4
same,AAV9-BVES-HA (IP-MS count),[12],2
same,AAV9-BVES-HA (IP-MS count),[13],2
same,AAV9-BVES-HA (IP-MS count),[14],2
same,AAV9-BVES-HA (IP-MS count),[15],4
same,AAV9-BVES-HA (IP-MS count),[16],4
same,AAV9-BVES-HA (IP-MS count),[17],12
same,AAV9-BVES-HA (IP-MS count),[18],4
same,AAV9-BVES-HA (IP-MS count),[19],2
same,AAV9-BVES-HA (IP-MS count),[20],4
same,AAV9-BVES-HA (IP-MS count),[21],2
same,AAV9-BVES-HA (IP-MS count),[22],4
same,AAV9-BVES-HA (IP-MS count),[23],2
same,AAV9-BVES-HA (IP-MS count),[24],2
same,AAV9-BVES-HA (IP-MS count),[25],2
same,AAV9-BVES-HA (IP-MS count),[26],2
same,AAV9-BVES-HA (IP-MS count),[27],5
same,AAV9-BVES-HA (IP-MS count),[28],36
same,AAV9-BVES-HA (IP-MS count),[29],2
same,AAV9-BVES-HA (IP-MS count),[30],19
same,AAV9-BVES-HA (IP-MS count),[31],4
same,AAV9-BVES-HA (IP-MS count),[32],3
same,AAV9-BVES-HA (IP-MS count),[33],2
same,AAV9-BVES-HA (IP-MS count),[34],4
same,AAV9-BVES-HA (IP-MS count),[35],2
same,AAV9-BVES-HA (IP-MS count),[36],13
same,AAV9-BVES-HA (IP-MS count),[37],3
same,AAV9-BVES-HA (IP-MS count),[38],2
same,AAV9-BVES-HA (IP-MS count),[39],2
